This note sets out measurements from PMC10338078.

The assay has as its target Drosophila Deltex WWE2 domain (residues 26-261; Dx1A*) (Drosophila) (UniProt Q23985). Put plainly: AUC.
Chain of UniProt Q23985 (Q23985 26-261): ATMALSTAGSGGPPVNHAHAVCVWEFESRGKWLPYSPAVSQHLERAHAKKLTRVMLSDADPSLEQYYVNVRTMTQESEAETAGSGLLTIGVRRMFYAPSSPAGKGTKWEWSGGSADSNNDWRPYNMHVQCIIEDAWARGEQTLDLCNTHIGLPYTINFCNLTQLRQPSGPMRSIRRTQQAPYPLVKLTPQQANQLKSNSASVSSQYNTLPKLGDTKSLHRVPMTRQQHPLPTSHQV

For the substance “Drosophila Notch ANK domain (Nank1-7*) R2007A (from UniProt P07207 1901-2048) (domain or fragment)”, the weight-averaged sedimentation coefficient (sw) of a 45 μM 1:1 mixture came out at 3.51e-13 s.
